Laboratory results taken from the nanobody polyreactivity screen of Harvey et al. (2022).

Assay: yeast display, Sf9 membrane polyspecificity reagent, FACS + sequencing; frameworks hold sequencing errors
Procedure, shortened: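 Galactose-induced (36–48 hours) yeast carrying a synthetic nanobody display library were exposed to 10% biotinylated, detergent-solubilized Sf9 membrane reagent at 4 °C for 1 hour. FACS followed streptavidin microbead enrichment, using low and high (top ~1%) gates for expression (anti-HA) and reagent binding (streptavidin). Colony PCR, MiSeq 2 × 250 sequencing and CDR-length filtering followed. Labels for polyreactivity reflect the gate of origin.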

Sequence | polyreactivity (PSR sort gate)
QVQLVESGGGLVQAGGSLRLSCAASGLIFSSNAMGWYRQAPGKERELVATISWSGGSTYYADSVKGRFTISRDNAKNTVYLQMNSLKPEDTAVYYCAAVTHPAWAVEYDYWGQGTQVTVSS | high polyreactivity
QVQLVESGGGLVQAGGSLRLSCAASGRTFYNYAMGWYRQAPGKERELVATINRGVSTNYADSVKGRFTISRDNEKNTVYLQMNSLKPEDTAVYYCAARKRPPYGYGYWGQGTQVTVSS | high polyreactivity
QVQLVESGGGLVQAGGSLRLSCAASGSIFIGYAMGWYRQAPGKERELVAAITSAGSTYADSVKGRFTISRDNAKNTGYLQRNSVKPEDTAVYYCAARFFLVTLDYWGQGTQVTVSS | low polyreactivity
QVQLVESGGGLVQAGGSLRLSCAASGRIFGYYAMGWYRPAPGKERELVAGISARGGSTYYADSVKGRFTISRDNAKNTVYLQMNSLKPEDTAVYYCNKTRHDWFRTDSIRESAEYDYWGQGTQVTVSS | low polyreactivity
QVQLVESGGGVVQAGGSLRLTCAASGFTFARYATGWYRQAPGKERELVAAITYSGGRTYYADSVKGRFTISRDNAKNTVYLHMNSLKPEDTAVYYCAARQYGPRYTYYYWGQGTQVTVSS | high polyreactivity
QVQLVESGGGLVQAGGSLRLSCAASGRTFVGYAMGWYRQPPGKERELVAAISGSGVRTYYADSVKGRFTISRDNAKNTGYLQMNSLKPEDTAVYYCADRRYRRWYDYWGQGTQVTVSS | high polyreactivity
QVQLVESGGGLVQAGASLRLSCAASGRTFSNYEMGSYRQAPGKERELVAAISGTGGTTYYADSVKGRFTISRVNEKNTVYLQMNSLKPEDTAVYYCAARSHTGYFPPSYYSGQGTQVTVSS | high polyreactivity
QVQLVESGGGLVQAGGSLRLSCAASGGTFYLNAMGWYRQAAGKERELVAGISWGGGRTYYADSVKGRFTISRDNAKNTVYLQMNSLKPEDTAVYYCAAGAWRGPYSGYYYWGQGTQVTVSS | low polyreactivity
QVQLQESVGGLVQAGGSLRLSCASSGSISNSAAMGWYRQAPGKERELVVSIGHGASSNYADSVKGRFTISRDNAKNTVYLQMNSLKPEDTAVYYCAAYPGFLDGFFYWGQSTQVTVSS | high polyreactivity
QVQLVESGARLVPAGGTLRLSFADYGFNFGQYAMAWYRQAPGKERELVAAISWSGGSTYYAESVKGRFTISRDNAKNTVYLQMNSLKPEDTAVYYCGEELGDYWGQGTQVTVSS | high polyreactivity
QVQLEESGGGLVQAGGSLSLSCAASGFIFPTYAMGWYRQAPGKERELVAVISGGGRTKYADSVKGRFTISRDNAKNTVYLQMNSLKPEDTAVYYCNADYWKGWTKFEYWGQGTQVTLSS | high polyreactivity
QVQLVESGGGLVQAGGSLRLSCASSGRTISSYAMGWYRQPPGKERELVAGISWRGGRTYYADSVKGRFTISRDNAKITVYLQMNSLKPEDTAVSYCAADRVRGGYRTYYWVVHLDYWGQGTQVTVSS | high polyreactivity
QVQLVESGGGLVQAGGSLRLSCAASGITFDRYAMAWYRHAPGKERELVAAITSSGGRTYYADSVKGRFTISRDNAKNTVYLQMNSLKPEDTAVYYCNTPWQNRADSHRDYWGQGTQVTVSS | high polyreactivity
QVQLVESGGGLVQAGGTLRLSCAASGYIFDRNAMGWYRPAPGKERELVAAITKRGGSTYYADSVKGRFTISRDNAKNTVYLQMNSLKPEETAVYYCNALARSSRYDYWGQGTQVTVSS | low polyreactivity
QDQLVESGGGLVQAGGSHRLTCAATGITLDNYVMGWYRQAPRTERELVAAISRTSGRTYYADSVKGRFTISRDNAKNTVYLQMHSLKPEDTGVYYCNARSRGRASGYDYWGHGTQVTVSS | high polyreactivity
QVQLVESGGGLVQAGGSLRLSCAASGFIFARYAMGWYRQAPGKERELVASITRRGGSTYYADSVKGRFTISRDNAKNTVYLQMNSLKPEDTAVYYCARPNLLSGDYWGQGTQVTVSS | high polyreactivity
QVQLVESGGGLVQAGGSLRLSCAASGSIFGSYAMGWYTQAPGKERELVAAITRAGSTNYADSVKGRFTISRDNAKNTVYLQINSLKPEDTAVFYCAVRPGFGRSLWYGYWGQGTQVTVSS | low polyreactivity
QDQLVESGGGLVQAGGSLRLSCAASGLIFIDYAMGWYRQAPGKERELVAAITRGGARTYYADSVKGRFTISRDNAKNTVYLQMNSLNPEDTAVYYCAADRPGSRYIDVDYWGQGTQVTVSS | high polyreactivity
QVQLEESGGGLVQAGGSLRLSFAASGRIFRRYAMGWYRQAPVKERELVAAISSRGGRTYYADSVKGRFTISRDNAKNTVYLQMNSLKPDDTAVYYCAAYYFFTDTYGPYEYWGQGTQVTVSS | high polyreactivity
QVQLVESGGGLVQAGGSLRLSCAASGRTFWFNHMGSYRQAPGKERELVAAITWNGGSTYYADSVKGRFTISRDNAKNTVYLQMNSLKPEATAVYYCARTSYARYRNGWTYDHWGQGTQVTVSS | low polyreactivity
QVQLVESGGGLVQAGGSLRLTSAASGRIFGYYAMGWYRQAPGKERDLVAAIRYSSGRTYYADSVKGRFTISRDNAKNIVYLQMNSLKPEDTAVYYGNAGYLFLRSYPHDYWGQGTQVTVSS | high polyreactivity
QVQLVESGGGLVQAGGSLRLSCAASGSTFDLNAMGWYRQAPGKERELVARITSSTGRTFYADSVKGRFTISRDNAKNTVYLQMNSLKPEDTAVYYCNTVGHGYSPPVNRSKMDYWGQGTQVTVSS | low polyreactivity

Sequence | polyreactivity (PSR sort gate)
QVQLVESGGGLVQSGGSLRLSCAASGITFDYYDMGWYRQAPGKERELVATITSDGSTTYADSVKGRFTISRDNAKNTVYLQMNSLKPEDTAVYYCDKRYWSYQYGYRMYYWGQGTQVTVSS | high polyreactivity
QVQLVESGGGLVQAGGSLRLSCAASGSIFFSNAMGGYRQAPGKERELVAAITSTGGSTYYADSVKGRFTISRDNAKNTGYLQMNSLKPEDTAVYYCAAASRRGYYYWGQGTQVTVSS | high polyreactivity
QVQLVESGGGLVQAGGSLRLSCADSGLIFTANDRGWYRQAPGKERELVADISKSGSSTYYADSVKGRFTISRDNAKNTVYLQMNSLKPEDTAVYYCNADYLTYFTTFDYWGQGTQVTVSS | low polyreactivity
QVQLVESGGGLVQAGGSLRLSCAASGNNFWWNDMGWYRHAPGKERELVAAISWRGSSTYYADSVKGRFTISRDNAKYTVYLQMNSLKPEDSAVYYCAKPDRTCWLDGDYWGQGTQVTVSS | low polyreactivity
QVQLVESGGGLVQAGGSLRLSCAASGRIFPHYSMGWYRQAPGKERELVAANSWSGSSTYYADSVKGRFTISRDNAMNTVYLQMNSLKPEDTAVYYCNAVRRGIGYDYGYWGQGTQVTVSS | high polyreactivity
QVQLVESGGGLVQAGGSLRLSCAASGFTFAPNAMGWYRQAPGKEMELVAAISSASSTYYADSVKGRFTISRDNAKNTVYLQMNSLKPEDTAVYYCAARVFKKYRPSGRYYYWGQGSQVTVSS | high polyreactivity
QVQLVESGGGLVQAGGSLRLSCAASGSIFTRNTMGWYRQAPGKERELVAAISTSGGDTYYADSVKGRFTISRDNAKNTVYLQMNSLKPEDTAVYFCAVVLVGVYFGYDYWGQGTQVTVSS | high polyreactivity
QVQLVESVGGLVQAGGSLRLSCAASGLTFWYYAMGCYRQAPGKERELVARITRSGVGTYYADSVKGRFTISRDNAKNTVYLQMNSLKAEDTAVYYCNARYQYSWVRYGYDYWGQGTQVTVSS | high polyreactivity
QVQLVESGGGLVQAGGSLRLSCAASGRILTTNAMGLYRQETGKERELVAAITRSGGRTYYADSVKGRFTISRDNAKNTVYLQMNSLKPEDTAVYYCNAVTTRLALYDYWGQGTQVTVSS | high polyreactivity
QVQLVESGGGLVQAGGSLRLSCAASGRIFWGNGMGWYRQAPGKEREFVAAISKSGGSTYYADSVKGRFTISRDNAKNTVYLQMNSLKPEDTAVYYCAARAPYSYSGYGYWGQGTQVTVSS | high polyreactivity
QVQLVESGGGLVQAGGSLRVSCAASGSTFDPNAMGWYRQATGKERELVADIDSGGSTYYADSVKGRFTISRDNAKNTVYLQMNSMKPEDTAVYYCATKQPTWVPRVIISYTKFDYWGQGTQVTVSS | low polyreactivity
QVQLVESGGGLVQAGGSLRLSCAASGRIFFRYAMGWYRPAPGKEREFVAAISGSAGSTYYADSVKGRFKISRDNAKNTVYLQMNSLKPEDTAVYYCAARKAKVSNGLKYDYWGQGTQVTVSS | high polyreactivity
QVQLVESGGGLVQAGGSLRLSCAASGSIFYVNAMGWYRQAPGTERELVAAISWRSGRTYYADSVKGRFTISRDHAKNTVYLQMHSLKPEDTAVYYCAARVRRGSTQAQYYYWGQGTQVTVSS | high polyreactivity
QVQLVESVGGLVQAGGILRLSSAASGSTFDINEKGWYRQAPGKERELVAAITWSGDSTYYADSVKGRFTISRDNAKNTVYLQMNSLKPVDTAVYYCSAYYPYSYYEDASYYYWGQGTQVTLSS | low polyreactivity
QVQLVESGGGLVQAGGSLRLSCAASGSIFTGNTMGWYRQAPGKERELVAAISRRGGRTYYADSVKGRFTISRDNAKNTVYLQMNSLKPEDTAVYYCAALGRDSTPHGYWGQGTQVTVSS | high polyreactivity
QVQLVESGGGLVQAGGSLRLSCAASGRIFGRNAMGWYRQAPGKERELVAAITYSGGRTYYADSVKGRFTISRDNAKNTVYLQMNSLKPEDTAVYYCAAYSFAYRYNYWGQGTQVTVSS | high polyreactivity
HVQLVESGGGLVQAAGSLRLSCAASGSTFYRYAMGWYRQAPVKERELVAAITRGGGRTYYADSVKGRFTISRDNAKNTVYLQMNSLKPEDTAVFYCNAASPYYDSWGQGTQVTVSS | high polyreactivity
QVQLVESGGGLVQAGGSLRLSCAASGSTLIDNVMGWYRQAPGKERELVASITSSDGTTYADSVKGRFTISRDNAKNTVYLQMNSLKPEDTAVYYCAARPWYGTYNYWGQGTQVTVSS | low polyreactivity
QVQLVESGGGLVQAGGSLRLSCAAYGSTFQPYAMGWYRPATGKEREFVATISGSAGSTYYADSVKGRFKISRDNAKNTVYLQMNSLKPEDTAVDYCNADSGWFGYDYWGQGTQVTVSS | low polyreactivity
QVQLVESGGGLVQAGGSLRLSCAASGFIFKRYAMGWYRQAPGKERELVAAITGSGSRTYYADSVKGRFTISRDNAKNTVYLQMNSLKPEDTAVYYCNKDRRPTADFGYWGQGTQVTVSS | high polyreactivity
QVQLVESGGGLVQAGGSLRLSCAASGSIFPPYAMGWYRPAPGKERELVAAINSGGSTNYADSVKGRFTISRDNAKNTVYLQMNSLIPEDTAVYYCNVDESYDWRTRKYDSWGQVTQVTVSS | low polyreactivity
